Reference: the RNAGym collection of RNA variant scans (doi:10.1073/pnas.2313332121)
This sample holds only a part of the variants without activity.

B1: TPR 5TU (parent)
chain: GGAUCUUCUCGAUCUAACAAAAAAGACAAAUCUGCCACAAAGCUUGAGAGCAUCUUCGGAUGCAGAGGCGGCAGCCUUCGGUGGCGCGAUAGCGCCAACGUUCUCAACUAUGACACGCAAAACGCGUGCUCCGUUGAAUGGAGUUUAUCAUG

Variants of: B1
Assay: polymerase ribozyme fitness, log enrichment relative to wild type (log ratio); higher = more active; in vitro selection for triplet polymerase activity
Outline: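 A single round of triplicate in vitro selection, including frozen incubation at −7 °C, was applied to PCR-built, transcribed mutant libraries of each subunit of a heterodimeric triplet polymerase ribozyme. Illumina sequencing of input and output libraries retained genotypes with ≥10 input reads and ≥1 read per output. Fitness is the base-2 logarithm of genotype enrichment divided by wild-type enrichment, from inverse-variance-weighted replicate averages.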

| Variant | polymerase ribozyme fitness (log ratio) |
| --- | --- |
| C38U A52G G92A G124U | -3.84 |
| C38G C54G C76G A107U U146G | ≤ -4.2 |
| C38U A73U | 0.0337 |
| C38A C76U A110G A113G G152A | ≤ -4.2 |
| C38U C85U C105U C123G | 0.319 |
| C38U A73G G83U A91U A97U A110G | ≤ -4.2 |
| C38A C76A G92U G136A G152U | ≤ -4.2 |
| C38U A120U | -0.54 |
| C38U C75A G80U | -4.14 |
| C38U C125A | -0.6 |
| C38U C93G | -2.92 |
| C38U A41C G48A C51A G84C G141C | ≤ -4.2 |
| C38U A49U U61G G83U G133C A142C | ≤ -4.2 |
| C38U C87U G94U | -1.73 |
| C38A G58U C95G | -1.52 |
| C38A C54U A73U | -2.15 |
| C38A C96U C99U | -0.43 |
| C38A C93G C123G | -3.67 |
| C38U A41G G58A | 1.52 |
| C38U C96G A142U U146A | -1.67 |
| C38A G94A C123U | -0.611 |

| Variant | polymerase ribozyme fitness (log ratio) |
| --- | --- |
| C38U C85A G117C | -0.0326 |
| C38G A40G G83A | -3.86 |
| C38U A52G C57U G67U A89U G92A | ≤ -4.2 |
| C38U C85G C93U G117U G128C | ≤ -4.2 |
| C38U A40U C116U U135A | 0.399 |
| C38A C93G C96U A115G G117A | ≤ -4.2 |
| C38U C79U A121U C125A G143U | -3.92 |
| C38G A120U G140C A142C | ≤ -4.2 |
| C38A U145C | -0.328 |
| C38G U56A C93U U104G A122C | -2.96 |
| C38A G42C U55G C69U U90G U146C | ≤ -4.2 |
| C38U A49C | ≤ -4.2 |
| C38A U148A | -4.04 |
| C38U C51U U56A G94U C105A A121U | -4.15 |
| C38U A40C G81A A91G C125G | -3.83 |
| C38U C93G C125A | -3.39 |
| C38G A89C C93A C95G U109C | ≤ -4.2 |
| C38A C57G U77G C79U A91G | ≤ -4.2 |
| C38G G42U G68A U77A C96U G141U | ≤ -4.2 |
| C38U G50U U56A G74U C75G C125U U139A | ≤ -4.2 |
| C38A U55A U135A U146C | -1.06 |

| Variant | polymerase ribozyme fitness (log ratio) |
| --- | --- |
| C38A C85G G86U | ≤ -4.2 |
| C38G U56A G86U U130A | ≤ -4.2 |
| C38A G84A U148G | ≤ -4.2 |
| C38A C95A C118A | -1.55 |
| C38U C95A C108U C132U | -3.39 |
| C38G C123A | -0.288 |
| C38U G62U C96G | -1.8 |
| C38G U146C | -0.518 |
| C38U C85U C95G C105A | -3.93 |
| C38A C96G | -0.458 |
| C38U A121C G136C A138U U148G | ≤ -4.2 |
| C38U A110U | -3.7 |
| C38U G62A A113G G136A | -2.45 |
| C38G G42C U61G G86U | ≤ -4.2 |
| C38G A40U U55A U56A C87U A89C | -3.99 |
| C38G C54U C57U G141C | -2.86 |
| C38U A52G A73U G152U | -4.12 |
| C38U G80C C85U G100U | ≤ -4.2 |
| C38U C116G U148A | -3.89 |
| C38U A49C C85U G92U C103A U111C U144C | ≤ -4.2 |
| C38A U55A A106C G117A U146A | -1.67 |

| Variant | polymerase ribozyme fitness (log ratio) |
| --- | --- |
| C38G A41G U55A G83A G143A | -1.78 |
| C38U C63A G94C | -0.694 |
| C38A G58C C87U | -0.072 |
| C38U C69G C95U A122C | -2.43 |
| C38U C96G | -1.09 |
| C38U C69A U82A G94U | -3.99 |
| C38A U56A | -0.602 |
| C38A U56A G86C | -3.01 |
| C38U G81A C99G A120U G124C | -3.02 |
| C38A G48C G71U | ≤ -4.2 |
| C38U A89G | -1.07 |
| C38U G62A C96U C129U | -0.672 |
| C38A U56G C93G C95A | ≤ -4.2 |
| C38G C54G U82C U146A | -1.88 |
| C38U C96G G152U | -3.85 |
| C38U A60C C85U C118U G136A | -0.726 |
| C38U C57G A89U G100C | ≤ -4.2 |
| C38G G140C | -4.11 |
| C38U C57A C63U C95U A98U C99G | -1.54 |
| C38G C85A C116A A120G | -2.28 |
